Here are results for 2 molecules from patent US8153410B2, “Alternate morpheein forms of allosteric proteins as a target for the development of bioactive molecules” (Fox Chase Cancer Center, priority 2003, dated 2012).

Where two headings read alike, the source gives them in different places. Marks after values point to notes of the source that are not given here.

Series [1] concerns the target T1, pea PBGS (Pisum sativum, UniProt P30124).
T1 sequence (P30124 69-398 limits assumed): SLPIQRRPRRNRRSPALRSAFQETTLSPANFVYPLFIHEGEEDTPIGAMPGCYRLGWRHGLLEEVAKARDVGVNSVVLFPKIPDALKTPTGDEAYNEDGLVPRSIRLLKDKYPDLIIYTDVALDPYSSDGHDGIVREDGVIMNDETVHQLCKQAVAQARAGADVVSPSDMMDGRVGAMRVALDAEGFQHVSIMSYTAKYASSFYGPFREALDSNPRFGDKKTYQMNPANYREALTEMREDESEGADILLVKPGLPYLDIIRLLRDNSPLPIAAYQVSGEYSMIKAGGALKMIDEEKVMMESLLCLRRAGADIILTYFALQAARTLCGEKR
The conditions noted are these: read-out: Kd for the allosteric magnesium of pea PBGS; cited from earlier work.

Series [2] concerns the target T2, human PBGS (Homo sapiens, UniProt P13716, C162A/K59N).
T2 construct: made in house; host or cells: E. coli BLR(DE3)
T2 sequence (P13716 1-330 K59N/C162A): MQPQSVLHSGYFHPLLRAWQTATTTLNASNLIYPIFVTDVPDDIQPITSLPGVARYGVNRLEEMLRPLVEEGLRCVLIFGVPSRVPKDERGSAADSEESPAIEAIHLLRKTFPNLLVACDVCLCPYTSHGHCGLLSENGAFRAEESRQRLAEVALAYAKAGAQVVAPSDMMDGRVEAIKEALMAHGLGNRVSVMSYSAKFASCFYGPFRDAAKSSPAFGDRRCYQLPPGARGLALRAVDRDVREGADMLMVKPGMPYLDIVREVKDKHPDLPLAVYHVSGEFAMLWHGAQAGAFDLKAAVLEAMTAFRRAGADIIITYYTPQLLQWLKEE
Description: kinetic characterization (Km, Vmax, specific activity) of human PBGS variants with substrate ALA. Format: biochemical. The conditions noted are these: pH 9; Table 1; hexamer component. As to the method: (§1) All kinetic determinations were carried out in 0.1 M bis-tris propane, 10 mM 2-mercaptoethanol, 10 μM Zn. For the pH rate profiles, the reported pH reflects the assay pH after the addition of 10 mM ALA-HCl. For Km and Vmax determinations, concentrations of ALA were 10 μM, 30 μM, 100 μM, 300 μM, 1 mM, 3 mM, and 10 mM and were each done in duplicate. […] All assays were at 37° C. for a fixed time using Ehrlich's reagent to determine porphobilinogen formed.
(§2) The kinetic parameters Km and Vmax of the S300 purified pools were determined at pH 7 and at pH 9 (Table 3 contains data for hetero-hexamers (Pool I) initially at 70% Leu and 30% Phe and for hetero-octamers (Pool II) initially at 30% Leu and 70% Phe). […] With the exception of the trace amount of octamer present for Pool I that is detected at pH 9, all the kinetic values are well determined (see Table 3). […] The factors that govern equilibration of human PBGS heteromers under assay conditions remain to be elucidated.
(§3) Km1 and Km2 (both mM) are interpreted as the Km for the octamer and hexamer, respectively.
(§4) Using freshly prepared hetero-oligomers of WT+F12L, the Pool I and Pool II proteins were separated chromatographically and then dialyzed for 24 hours at pH 7 in the presence of 10 mM ALA. Following dialysis, the re-equilibrated hetero-oligomers were again separated into their hexameric and octameric components by chromatography on a Mono-Q column. The separated proteins were characterized for their specific activity and for their Phe12 and Leu12 content. The specific activity of hexamer and octamer are dramatically different with hexamer showing optimal activity at pH 9 and the activity of octamer is maximal at pH 7 (Table 4). […] Following chromatographic separation, the proteins were called Pool I hexamer, Pool I octamer, Pool II hexamer, and Pool II octamer and are described below. The peak to elute first on the Mono-Q column runs comparably to the F12L mutant, which is the hexamer. The hexameric structure is substantiated by native gel electrophoresis and by specific activity at pH 7 and pH 9 (FIG. 26A and Table 4). The second peak to elute runs comparably to the WT human PBGS, which is the octamer. The octameric structure is substantiated by native gel electrophoresis and specific activity at pH 7 and pH 9 (FIG. 26A and Table 4). Consistent with the documented characteristics of human PBGS hexamers and octamers, Pool I hexamer and Pool II hexamer have very low activity at pH 7 and considerable activity at pH 9. Pool I octamer and Pool II octamer both show substantially higher activity at pH 7 than at pH 9.

In series [3] the test system is human PBGS. The series is described as above. The class given is biochemical. As to the method:
as §1, §2, §3, §4

The test system of series [4] is human PBGS. Description: temperature dependence (Arrhenius plots) of hetero-hexamer to hetero-octamer conversion and of substrate turnover. The note with it: pH 7.0, 10 mM ALA-HCl. The class given is biochemical. An excerpt:
To determine the free energy of activation for the conversion of hetero-hexamers to hetero-octamers, we took advantage of the dramatic differences in the activity of octameric (high activity) and hexameric (low activity) human PBGS at pH 7.0 (3, 5). Because of this difference, the transition from purified hetero-hexamers to a mixture of hetero-hexamers and hetero-octamers under turnover conditions is accompanied by a progressive increase in the specific activity; this process was monitored at several temperatures. Starting with purified hetero-hexamers, (FIG. 34a) the specific activity increased, which is fit to a first-order exponential as exemplified in FIG. 35b (5). […] The time-courses for conversion of hetero-hexamer to hetero-octamer were monitored by periodically removing aliquots from the incubations and immediately quantifying porphobilinogen using Ehrlich's reagent and calculating specific activities based on the total incubation time. […] An activation energy for hetero-hexamer to hetero-octamer conversion (Ea=63±5 kJ/mol) was determined from the slope of the plot. […] However, we previously monitored this process at 5 μg/ml and 0.9 mg/ml, two widely different enzyme concentrations, by specific activity increase and dynamic light scattering respectively. […]

The Kd is the equilibrium constant for the complex coming apart. Consider `[Mg+2]` [magnesium], for which the equilibrium dissociation constant (Kd) in series [1] is 2500 µM.

B1: WT: wild type human PBGS (parent N59/C162A), octameric, expressed in E. coli (protein)
chain: MQPQSVLHSGYFHPLLRAWQTATTTLNASNLIYPIFVTDVPDDIQPITSLPGVARYGVNRLEEMLRPLVEEGLRCVLIFGVPSRVPKDERGSAADSEESPAIEAIHLLRKTFPNLLVACDVCLCPYTSHGHCGLLSENGAFRAEESRQRLAEVALAYAKAGAQVVAPSDMMDGRVEAIKEALMAHGLGNRVSVMSYSAKFASCFYGPFRDAAKSSPAFGDRRCYQLPPGARGLALRAVDRDVREGADMLMVKPGMPYLDIVREVKDKHPDLPLAVYHVSGEFAMLWHGAQAGAFDLKAAVLEAMTAFRRAGADIIITYYTPQLLQWLKEE
As a reminder, the Km is the substrate concentration at which the rate is half of its maximum. B1: in series [2], the Km2 was 4.46 ± 0.80^a mM. The Vmax2 in series [2] was 6.67 µM/h/mg; in series [3] (pH 9, Table 3) it was 6.67 ± 0.36 µmol/h/mg. The “Specific activities before and after substrate induced disproportionation” value amounted to 56.9 µmol/h/mg in series [3] (pH 7) and 13.1 µmol/h/mg in series [3] (pH 9). Besides, the Km1 in series [3] (pH 7, Table 1) worked out at 0.25 ± 0.01 mM; in series [3] (pH 9, Table 1), 0.015 ± 0.001 mM. In addition, the Vmax1 in series [3] (pH 7, Table 1) was found to be 55.5 ± 0.2; in series [3] (pH 7, Table 3), 55.5 ± 0.2 µmol/h/mg; in series [3] (pH 9, Table 1), 8.16 ± 0.13; in series [3] (pH 9, Table 3), 8.16 ± 0.13 µmol/h/mg. In addition, the Km in series [3] (pH 7, Table 3, read-out: Km1 (Km for the octamer)) was found to be 250 ± 10 µM; in series [3] (pH 9, Table 3, read-out: Km1 (Km for the octamer)), 15 µM; in series [3] (pH 9, Table 3, read-out: Km2 (Km for the hexamer)) it was 4460 ± 800 µM. Also, the “activation energy for substrate turnover” value in series [4] was found to be 14.8 ± 0.24 kcal/mol.
